Positions count from the first letter of the chain named.

A word on the Kd: it is the concentration at which binding is half-saturated. High values mean weaker binding, low ones tighter binding. What is called koff is a measure of how fast the partners let go of each other. For orientation: kon means a measure of how fast the partners come together. A higher kon goes with fast association.

One test deals with T1, Cynomolgus CD73 antigen (cynomolgus, UniProt A0A2K5V5U7 27-547).
T1 construct: Antigen used as analyte in SPR
T1 sequence: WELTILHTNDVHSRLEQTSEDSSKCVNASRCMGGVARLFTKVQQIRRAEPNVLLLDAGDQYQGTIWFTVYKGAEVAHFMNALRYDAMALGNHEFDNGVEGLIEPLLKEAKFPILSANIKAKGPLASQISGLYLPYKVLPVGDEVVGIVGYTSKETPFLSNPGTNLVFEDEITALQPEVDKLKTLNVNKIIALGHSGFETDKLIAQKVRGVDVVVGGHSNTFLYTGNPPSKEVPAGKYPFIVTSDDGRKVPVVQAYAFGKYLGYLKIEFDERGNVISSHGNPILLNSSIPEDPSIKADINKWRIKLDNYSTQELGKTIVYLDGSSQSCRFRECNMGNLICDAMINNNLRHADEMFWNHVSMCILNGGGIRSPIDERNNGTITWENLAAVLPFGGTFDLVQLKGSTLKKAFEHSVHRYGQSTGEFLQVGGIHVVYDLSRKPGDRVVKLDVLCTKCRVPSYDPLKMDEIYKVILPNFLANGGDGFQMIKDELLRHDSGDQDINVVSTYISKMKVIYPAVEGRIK
Briefly: SPR (Biacore 8K), species cross test, antibody captured on anti-human capture CM5 chip, antigen as analyte, 1:1 model. The protocol:
The experimental method is as follows:
(§1) An Anti-Human Capture-CM5 chip (GE, #BR-1005-30) was prepared using coupling methods of a Human Antibody Capture Kit (GE, #BR-1008-39) and an amino coupling kit (GE, BR-1000-50). The chip was equilibrated at room temperature for about 20-30 min and loaded into a Biacore 8K instrument. The antigen and antibody were diluted to an experimental working concentration using an equilibration buffer. The antigen was diluted with an equilibrium buffer to 50 nM, and then diluted three-fold for seven concentration gradients, and two zero concentrations (i.e., the equilibrium buffer) and one repeat concentration (typically the lowest concentration repeat) were set. Experimental analysis was performed on 10 antigen concentrations (2 zero concentrations, 7 gradient concentrations, and 1 repeated concentration) in a cyclic manner according to an order of antibody, antigen, and regeneration. The antigen injection flow rate was 30 μL/min, the binding time was 120 s, and the dissociation time was 600 s. Following the analysis, the data was analyzed using the corresponding analysis program to confirm that there was no obvious reference binding. Using Kinetics and a 1:1 binding model, the data was fit to obtain the kinetic related parameters Ka, Kd, and KD values of the bispecific antibodies.

The target in a further test is T2, Human CD39 antigen (human, UniProt P49961 38-478).
T2 construct: Antigen used as analyte in SPR; also called ENTPD1
T2 sequence (looked up): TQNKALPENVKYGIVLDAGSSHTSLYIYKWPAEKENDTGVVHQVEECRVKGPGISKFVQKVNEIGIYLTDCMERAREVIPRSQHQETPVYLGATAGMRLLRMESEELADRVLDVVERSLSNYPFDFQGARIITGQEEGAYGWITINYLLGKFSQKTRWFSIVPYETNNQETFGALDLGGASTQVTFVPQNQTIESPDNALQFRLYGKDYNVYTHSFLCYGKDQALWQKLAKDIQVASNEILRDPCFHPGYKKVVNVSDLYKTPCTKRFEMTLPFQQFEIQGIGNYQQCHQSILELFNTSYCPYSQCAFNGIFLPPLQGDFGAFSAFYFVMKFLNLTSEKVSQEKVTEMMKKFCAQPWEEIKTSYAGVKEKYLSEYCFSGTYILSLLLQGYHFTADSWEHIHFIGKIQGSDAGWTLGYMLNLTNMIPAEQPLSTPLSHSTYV
Briefly: SPR (Biacore 8K), antibody captured on anti-human capture CM5 chip, antigen as analyte, 1:1 model. As for the experimental part:
as §1, with “for” for “for about”, “20-30 mins” for “20-30 min”, “The antigens were” for “The antigen was”, “with the” for “with an”, “bispecific antibodies and parental control” for “bispecific”

For a further test, the target named is T3, Human CD73 antigen (human, UniProt P21589 27-547, limits assumed).
T3 construct: Antigen used as analyte in SPR; also called NT5E
T3 sequence (looked up): T1 sequence with T199M, A350T, I466V
Described as above. As for the experimental part:
as §1, with “for” for “for about”, “20-30 mins” for “20-30 min”, “The antigens were” for “The antigen was”, “with the” for “with an”, “bispecific antibodies and parental control” for “bispecific”

Test [1] concerns the target soluble recombinant protein CD73. Kind of test: cell-based or functional assay.

Chain of soluble recombinant protein CD73 (P21589 whole entry): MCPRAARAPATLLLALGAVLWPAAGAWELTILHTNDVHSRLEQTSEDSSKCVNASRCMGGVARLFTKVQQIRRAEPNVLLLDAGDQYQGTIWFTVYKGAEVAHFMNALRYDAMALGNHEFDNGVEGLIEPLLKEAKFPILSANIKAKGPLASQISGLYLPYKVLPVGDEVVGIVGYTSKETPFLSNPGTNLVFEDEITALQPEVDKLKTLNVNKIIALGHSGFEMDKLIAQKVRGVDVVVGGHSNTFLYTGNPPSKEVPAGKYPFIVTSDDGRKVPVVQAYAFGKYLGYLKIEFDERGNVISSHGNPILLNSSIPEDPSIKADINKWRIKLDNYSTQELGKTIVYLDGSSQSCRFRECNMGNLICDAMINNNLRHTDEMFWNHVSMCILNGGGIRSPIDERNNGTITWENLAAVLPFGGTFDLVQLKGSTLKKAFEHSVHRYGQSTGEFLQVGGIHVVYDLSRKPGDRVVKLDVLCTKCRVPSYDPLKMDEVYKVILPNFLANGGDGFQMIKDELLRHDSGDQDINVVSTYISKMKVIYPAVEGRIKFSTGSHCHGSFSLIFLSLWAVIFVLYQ

B1: CD39/CD73 bispecific antibody 700038 (CD39-VHH-CD73-IgG) (bispecific antibody)
heavy: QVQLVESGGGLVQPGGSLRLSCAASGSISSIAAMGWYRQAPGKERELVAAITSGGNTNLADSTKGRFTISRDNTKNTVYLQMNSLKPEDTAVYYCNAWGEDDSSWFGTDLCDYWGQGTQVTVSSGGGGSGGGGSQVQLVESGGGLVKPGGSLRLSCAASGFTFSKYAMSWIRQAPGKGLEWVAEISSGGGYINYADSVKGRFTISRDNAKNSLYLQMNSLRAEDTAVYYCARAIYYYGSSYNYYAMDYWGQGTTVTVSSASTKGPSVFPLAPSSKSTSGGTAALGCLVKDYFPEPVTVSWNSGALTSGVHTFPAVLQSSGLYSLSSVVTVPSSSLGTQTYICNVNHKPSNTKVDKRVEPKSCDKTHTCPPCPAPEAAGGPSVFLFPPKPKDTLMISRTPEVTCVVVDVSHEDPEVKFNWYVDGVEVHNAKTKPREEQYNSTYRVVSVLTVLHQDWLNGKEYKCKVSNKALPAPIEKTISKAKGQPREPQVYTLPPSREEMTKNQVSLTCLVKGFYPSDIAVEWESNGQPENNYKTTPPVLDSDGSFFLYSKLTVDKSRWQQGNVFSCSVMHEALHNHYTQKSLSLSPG
light: DIQMTQSPSSLSASVGDRVTITCRASQDVGTAEAWYQQKPGKAPKLLIYWASTRHTGVPSRFSGSGSGTDFTLTISSLQPEDFATYYCQQYSSYPLTFGQGTKLEIKRTVAAPSVFIFPPSDEQLKSGTASVVCLLNNFYPREAKVQWKVDNALQSGNSQESVTEQDSKDSTYSLSSTLTLSKADYEKHKVYACEVTHQGLSSPVTKSFNRGEC
With B1, in the test with Cynomolgus CD73 antigen, the Kd was 0.326 nM, the koff was 0.000148 s⁻¹ and the kon came out at 456000 M⁻¹ s⁻¹. In the test with Human CD39 antigen, this molecule had a Kd of 0.0918 nM, a koff of 9.54e-05 s⁻¹ and a kon of 1.04e+06 M⁻¹ s⁻¹. Besides, in the test with Human CD73 antigen, the affinity, expressed as Kd, was 0.425 nM; the koff was 0.000249 s⁻¹; the kon turned out to be 587000 M⁻¹ s⁻¹. Moreover, the “EC50 (µg/mL), inhibition of enzyme activity of soluble CD73 protein (CellTiter Glo)” value in test [1] came to 1.85 µg/mL.

B2: CD39/CD73 bispecific antibody 700035 (CD39-VHH-CD73-IgG) (bispecific antibody)
heavy: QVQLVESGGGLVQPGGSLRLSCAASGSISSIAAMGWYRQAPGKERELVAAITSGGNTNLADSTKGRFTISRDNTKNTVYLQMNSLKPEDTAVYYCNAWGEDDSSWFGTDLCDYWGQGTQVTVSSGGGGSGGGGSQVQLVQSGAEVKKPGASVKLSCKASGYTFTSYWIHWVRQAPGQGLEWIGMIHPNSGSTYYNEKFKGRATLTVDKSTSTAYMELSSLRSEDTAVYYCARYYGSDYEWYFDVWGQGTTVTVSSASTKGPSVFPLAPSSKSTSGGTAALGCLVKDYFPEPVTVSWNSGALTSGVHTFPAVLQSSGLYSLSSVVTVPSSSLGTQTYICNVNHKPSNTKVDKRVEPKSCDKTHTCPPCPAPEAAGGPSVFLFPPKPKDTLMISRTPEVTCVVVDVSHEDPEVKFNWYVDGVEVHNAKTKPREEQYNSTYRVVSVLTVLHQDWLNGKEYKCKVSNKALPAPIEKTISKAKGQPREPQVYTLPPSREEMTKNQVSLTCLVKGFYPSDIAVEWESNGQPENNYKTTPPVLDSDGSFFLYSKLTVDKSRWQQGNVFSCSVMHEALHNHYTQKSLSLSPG
light: DIQMTQSPSSMSASVGDRVTITCKASQNVRTAVVWYQQKPGKAPKALIYLASNRHTGVPDRFSGSGSGTDFTLTISSLQPEDFATYFCLQHWNYPYTFGQGTKLEIKRTVAAPSVFIFPPSDEQLKSGTASVVCLLNNFYPREAKVQWKVDNALQSGNSQESVTEQDSKDSTYSLSSTLTLSKADYEKHKVYACEVTHQGLSSPVTKSFNRGEC
B2: the Kd in the test with Cynomolgus CD73 antigen worked out at 0.409 nM; with Human CD39 antigen, 0.0708 nM; with Human CD73 antigen it was 0.341 nM. The koff with Cynomolgus CD73 antigen stood at 0.000342 s⁻¹; with Human CD39 antigen it was 9.28e-05 s⁻¹; in the test with Human CD73 antigen, 0.000319 s⁻¹. The kon with Cynomolgus CD73 antigen came to 836000 M⁻¹ s⁻¹; in the test with Human CD39 antigen, 1.31e+06 M⁻¹ s⁻¹; with Human CD73 antigen, 935000 M⁻¹ s⁻¹.

Values taken from patent US20250361314A1 (SHANGHAI HUAOTA BIOPHARMACEUTICAL, published 2025).
